Experimental data published in patent US20240174727A1, “LONG-ACTING NATRIURETIC PEPTIDES AND USES THEREOF” (Eli Lilly and Company, priority 2022, published 2024).
Numbered stars: 1 amine (or outer) side, 2 acyl side, 3 side chain; on linkers, the order of the positions; unused ones are H or OH. Bridge positions count the residues as written; N and C are the ends. Square brackets hold non-standard residues; d marks the D form. * marks the point of attachment. C20 diacid = O=C(O)CCCCCCCCCCCCCCCCCCC(=O)*; γGlu = O=C(O)[C@H](CCC(=O)[*:2])N[*:1]; 4Pal = N[C@@H](Cc1ccncc1)C(=O)O

T1: human NPRA (human, UniProt P16066 33-1061)
T1 sequence (looked up): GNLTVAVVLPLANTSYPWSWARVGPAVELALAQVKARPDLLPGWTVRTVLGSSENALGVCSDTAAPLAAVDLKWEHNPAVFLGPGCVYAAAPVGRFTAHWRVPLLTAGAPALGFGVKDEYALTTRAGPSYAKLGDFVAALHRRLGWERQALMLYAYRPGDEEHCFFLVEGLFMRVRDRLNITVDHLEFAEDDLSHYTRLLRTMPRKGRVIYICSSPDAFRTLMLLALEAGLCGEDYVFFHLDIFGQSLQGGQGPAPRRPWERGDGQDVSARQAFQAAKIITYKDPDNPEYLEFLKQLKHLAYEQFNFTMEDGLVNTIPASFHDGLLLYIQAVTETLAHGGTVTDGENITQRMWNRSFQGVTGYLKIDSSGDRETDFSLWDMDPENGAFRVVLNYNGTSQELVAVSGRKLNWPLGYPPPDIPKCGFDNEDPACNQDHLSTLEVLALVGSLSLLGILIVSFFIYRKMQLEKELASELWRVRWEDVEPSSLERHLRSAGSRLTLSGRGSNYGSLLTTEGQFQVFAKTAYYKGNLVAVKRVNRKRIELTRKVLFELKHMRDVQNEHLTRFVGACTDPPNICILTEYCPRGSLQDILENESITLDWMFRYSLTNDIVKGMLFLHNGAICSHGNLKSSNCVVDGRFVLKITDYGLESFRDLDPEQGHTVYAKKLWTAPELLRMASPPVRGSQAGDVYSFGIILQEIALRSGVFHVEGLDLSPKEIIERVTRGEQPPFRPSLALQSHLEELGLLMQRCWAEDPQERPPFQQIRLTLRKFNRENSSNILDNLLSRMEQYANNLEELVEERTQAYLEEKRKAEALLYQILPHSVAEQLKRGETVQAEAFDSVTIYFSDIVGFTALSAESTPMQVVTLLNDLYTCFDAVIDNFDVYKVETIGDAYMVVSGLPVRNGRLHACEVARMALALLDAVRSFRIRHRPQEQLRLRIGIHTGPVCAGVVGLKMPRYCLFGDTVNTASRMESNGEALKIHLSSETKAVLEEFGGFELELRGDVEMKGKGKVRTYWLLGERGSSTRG

T2: rat NPRA (rat, UniProt P18910 29-1057)
T2 sequence (looked up): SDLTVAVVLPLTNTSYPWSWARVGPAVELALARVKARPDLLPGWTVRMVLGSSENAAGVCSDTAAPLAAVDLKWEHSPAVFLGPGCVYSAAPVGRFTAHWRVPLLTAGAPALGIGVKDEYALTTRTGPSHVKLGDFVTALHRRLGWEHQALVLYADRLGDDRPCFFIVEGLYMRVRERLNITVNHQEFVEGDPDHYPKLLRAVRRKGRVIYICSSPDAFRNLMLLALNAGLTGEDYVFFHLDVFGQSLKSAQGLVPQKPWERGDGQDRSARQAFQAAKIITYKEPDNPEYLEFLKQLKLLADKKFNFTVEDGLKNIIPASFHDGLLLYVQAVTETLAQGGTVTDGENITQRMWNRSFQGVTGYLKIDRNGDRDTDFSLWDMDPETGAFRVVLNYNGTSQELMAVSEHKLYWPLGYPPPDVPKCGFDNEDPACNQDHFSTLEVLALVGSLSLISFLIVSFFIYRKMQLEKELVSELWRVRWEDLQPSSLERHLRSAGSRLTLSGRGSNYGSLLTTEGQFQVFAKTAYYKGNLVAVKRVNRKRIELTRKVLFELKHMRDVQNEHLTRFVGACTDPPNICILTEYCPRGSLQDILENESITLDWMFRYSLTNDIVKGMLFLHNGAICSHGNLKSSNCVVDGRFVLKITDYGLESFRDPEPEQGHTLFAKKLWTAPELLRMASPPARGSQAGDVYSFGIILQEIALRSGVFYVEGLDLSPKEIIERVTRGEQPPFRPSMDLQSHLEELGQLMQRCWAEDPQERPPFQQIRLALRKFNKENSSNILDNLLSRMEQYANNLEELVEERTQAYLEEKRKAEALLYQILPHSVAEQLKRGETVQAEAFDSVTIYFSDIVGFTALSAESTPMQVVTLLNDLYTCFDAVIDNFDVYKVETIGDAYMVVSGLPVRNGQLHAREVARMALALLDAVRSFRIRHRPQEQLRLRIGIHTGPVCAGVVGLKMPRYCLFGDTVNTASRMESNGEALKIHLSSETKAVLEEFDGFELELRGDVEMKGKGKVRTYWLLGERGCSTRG

B1: Example 15 (peptide)
peptide: {C20 diacid}-[γGlu]EKEKEKGS[4Pal]RRSSCFGGRIDRIGAQSGLGCNSFR[4Pal]-NH2
modifications: disulfide 15-31
SMILES: CC[C@H](C)[C@@H]1NC(=O)[C@H](CCCNC(=N)N)NC(=O)[C@H](CC(=O)O)NC(=O)[C@H]([C@@H](C)CC)NC(=O)[C@H](CCCNC(=N)N)NC(=O)CNC(=O)CNC(=O)[C@H](Cc2ccccc2)NC(=O)[C@@H](NC(=O)[C@H](CO)NC(=O)[C@H](CO)NC(=O)[C@H](CCCNC(=N)N)NC(=O)[C@H](CCCNC(=N)N)NC(=O)[C@H](Cc2ccncc2)NC(=O)[C@H](CO)NC(=O)CNC(=O)[C@H](CCCCN)NC(=O)[C@H](CCC(=O)O)NC(=O)[C@H](CCCCN)NC(=O)[C@H](CCC(=O)O)NC(=O)[C@H](CCCCN)NC(=O)[C@H](CCC(=O)O)NC(=O)CC[C@H](NC(=O)CCCCCCCCCCCCCCCCCCC(=O)O)C(=O)O)CSSC[C@@H](C(=O)N[C@@H](CC(N)=O)C(=O)N[C@@H](CO)C(=O)N[C@@H](Cc2ccccc2)C(=O)N[C@@H](CCCNC(=N)N)C(=O)N[C@@H](Cc2ccncc2)C(N)=O)NC(=O)CNC(=O)[C@H](CC(C)C)NC(=O)CNC(=O)[C@H](CO)NC(=O)[C@H](CCC(N)=O)NC(=O)[C@H](C)NC(=O)CNC1=O
B2: Example 12 (peptide)
peptide: {C20 diacid}-[γGlu]EKEKEKGSLRRSSCFGGRIDRIGA[4Pal]SGLGCNSFR[4Pal]-NH2
modifications: disulfide 15-31
SMILES: CC[C@H](C)[C@@H]1NC(=O)[C@H](CCCNC(=N)N)NC(=O)[C@H](CC(=O)O)NC(=O)[C@H]([C@@H](C)CC)NC(=O)[C@H](CCCNC(=N)N)NC(=O)CNC(=O)CNC(=O)[C@H](Cc2ccccc2)NC(=O)[C@@H](NC(=O)[C@H](CO)NC(=O)[C@H](CO)NC(=O)[C@H](CCCNC(=N)N)NC(=O)[C@H](CCCNC(=N)N)NC(=O)[C@H](CC(C)C)NC(=O)[C@H](CO)NC(=O)CNC(=O)[C@H](CCCCN)NC(=O)[C@H](CCC(=O)O)NC(=O)[C@H](CCCCN)NC(=O)[C@H](CCC(=O)O)NC(=O)[C@H](CCCCN)NC(=O)[C@H](CCC(=O)O)NC(=O)CC[C@H](NC(=O)CCCCCCCCCCCCCCCCCCC(=O)O)C(=O)O)CSSC[C@@H](C(=O)N[C@@H](CC(N)=O)C(=O)N[C@@H](CO)C(=O)N[C@@H](Cc2ccccc2)C(=O)N[C@@H](CCCNC(=N)N)C(=O)N[C@@H](Cc2ccncc2)C(N)=O)NC(=O)CNC(=O)[C@H](CC(C)C)NC(=O)CNC(=O)[C@H](CO)NC(=O)[C@H](Cc2ccncc2)NC(=O)[C@H](C)NC(=O)CNC1=O
B3: Example 14 (peptide)
peptide: {C20 diacid}-[γGlu]EKEKEKGS[4Pal]RRSSCFGGRIDRIGA[4Pal]SGLGCNSFRY-NH2
modifications: disulfide 15-31
SMILES: CC[C@H](C)[C@@H]1NC(=O)[C@H](CCCNC(=N)N)NC(=O)[C@H](CC(=O)O)NC(=O)[C@H]([C@@H](C)CC)NC(=O)[C@H](CCCNC(=N)N)NC(=O)CNC(=O)CNC(=O)[C@H](Cc2ccccc2)NC(=O)[C@@H](NC(=O)[C@H](CO)NC(=O)[C@H](CO)NC(=O)[C@H](CCCNC(=N)N)NC(=O)[C@H](CCCNC(=N)N)NC(=O)[C@H](Cc2ccncc2)NC(=O)[C@H](CO)NC(=O)CNC(=O)[C@H](CCCCN)NC(=O)[C@H](CCC(=O)O)NC(=O)[C@H](CCCCN)NC(=O)[C@H](CCC(=O)O)NC(=O)[C@H](CCCCN)NC(=O)[C@H](CCC(=O)O)NC(=O)CC[C@H](NC(=O)CCCCCCCCCCCCCCCCCCC(=O)O)C(=O)O)CSSC[C@@H](C(=O)N[C@@H](CC(N)=O)C(=O)N[C@@H](CO)C(=O)N[C@@H](Cc2ccccc2)C(=O)N[C@@H](CCCNC(=N)N)C(=O)N[C@@H](Cc2ccc(O)cc2)C(N)=O)NC(=O)CNC(=O)[C@H](CC(C)C)NC(=O)CNC(=O)[C@H](CO)NC(=O)[C@H](Cc2ccncc2)NC(=O)[C@H](C)NC(=O)CNC1=O
B4: Example 13 (peptide)
peptide: {C20 diacid}-[γGlu]EKEKEKGSLRRSSCF[4Pal]GRIDRIGAQSGLGCNSFRY-NH2
modifications: disulfide 15-31
SMILES: CC[C@H](C)[C@@H]1NC(=O)[C@H](CCCNC(=N)N)NC(=O)[C@H](CC(=O)O)NC(=O)[C@H]([C@@H](C)CC)NC(=O)[C@H](CCCNC(=N)N)NC(=O)CNC(=O)[C@H](Cc2ccncc2)NC(=O)[C@H](Cc2ccccc2)NC(=O)[C@@H](NC(=O)[C@H](CO)NC(=O)[C@H](CO)NC(=O)[C@H](CCCNC(=N)N)NC(=O)[C@H](CCCNC(=N)N)NC(=O)[C@H](CC(C)C)NC(=O)[C@H](CO)NC(=O)CNC(=O)[C@H](CCCCN)NC(=O)[C@H](CCC(=O)O)NC(=O)[C@H](CCCCN)NC(=O)[C@H](CCC(=O)O)NC(=O)[C@H](CCCCN)NC(=O)[C@H](CCC(=O)O)NC(=O)CC[C@H](NC(=O)CCCCCCCCCCCCCCCCCCC(=O)O)C(=O)O)CSSC[C@@H](C(=O)N[C@@H](CC(N)=O)C(=O)N[C@@H](CO)C(=O)N[C@@H](Cc2ccccc2)C(=O)N[C@@H](CCCNC(=N)N)C(=O)N[C@@H](Cc2ccc(O)cc2)C(N)=O)NC(=O)CNC(=O)[C@H](CC(C)C)NC(=O)CNC(=O)[C@H](CO)NC(=O)[C@H](CCC(N)=O)NC(=O)[C@H](C)NC(=O)CNC1=O

Biological target: T1, human NPRA
Assay: cell-based or functional assay

First: B1
Second: B2
The “cGMP Assay (EC50, pM) w/BSA” value of the first is lower: 57300 pM for the first, 109000 pM for the second.

Going from B3 to B4, the “cGMP Assay (EC50, pM) w/BSA” value rises from 27700 pM to 145000 pM.

First: B1
Second: B2
The “cGMP Assay (EC50, pM) w/Casein” value of the first is lower: 912 pM for the first, 1520 pM for the second.

Compared with B3, B4 is higher in “cGMP Assay (EC50, pM) w/Casein” value: 685 pM for the first, 1920 pM for the second.

Biological target: T2, rat NPRA
Assay: cell-based or functional assay

Going from B1 to B2, the “cGMP Assay (EC50, pM) w/BSA” value rises from 32600 pM to 85500 pM.

Compared with B3, B4 is lower in “cGMP Assay (EC50, pM) w/BSA” value: 37800 pM for the first, 24000 pM for the second.

Going from B1 to B2, the “cGMP Assay (EC50, pM) w/Casein” value rises from 254 pM to 670 pM.

Going from B3 to B4, the “cGMP Assay (EC50, pM) w/Casein” value falls from 1170 pM to 241 pM.
